From US20120065365A1, “Stable Radiopharmaceutical Compositions and Methods for Their Preparation” (BRACCO IMAGING S.P.A., priority 2003, published 2012)
Read-outs that look alike come from different tables or passages of the source.

How the values were obtained:
[1] = format: physicochemical; conditions: 55 mCi/2 ml, 1 mL radiolysis protecting solution (L-cysteine) added after complex formation, room temperature
[2] = format: physicochemical; conditions: 50 mCi/2 mL in Radiolysis Protecting Solution containing L-methionine, room temperature
Protocol: The injection volume was 20 μL.
A Radiolysis Protecting Solution was prepared to contain 10 mg/mL gentisic acid; 50 mg/mL ascorbic acid sodium salt; 2 mg/mL HSA; 2.98 mg/mL L-methionine, 0.9% (v:v) benzyl alcohol and 1 mg/mL of Na2EDTA.2H2O in 0.05 M, pH 5.3 citrate buffer. […] The mixture was incubated at 100° C. for 5 min, and then cooled to room temperature with a water bath. A 1-mL aliquot of the Radiolysis Protecting Solution was immediately added. The reaction vial was stored in an autosampler chamber and the stability was analyzed by Reversed Phase HPLC over time, using HPLC Methods 3 and 4. The results obtained for ^177Lu-B are shown in the chromatograms in FIG. 9.

[3] = format: physicochemical; conditions: 50 mCi/2 mL, Radiolysis Protecting Solution, room temperature
Protocol: ^177Lu-A and ^177Lu-B were prepared at a 50 mCi level as described in EXAMPLE 4. Immediately after cooling the reaction mixtures to room temperature, 1 mL of a Radiolysis Protecting Solution was added, containing 10 mg/mL gentisic Acid; 50 mg/mL ascorbic acid sodium salt, 2 mg/mL HSA, (2 mg/mL or 3.52 mg/mL) L-cysteine, 0.9% (v/v) benzyl alcohol and 1 mg/mL of Na2EDTA.2H2O in 0.05 M, pH 5.3 citrate buffer. The reaction vials were stored in the autosampler chamber and the stability was analysed by RP-HPLC over time using HPLC Methods 3 [^177Lu-A] or 4 [^177Lu-B]. Similar results were obtained for ^177Lu-B.

[4] = format: physicochemical; conditions: Radiolysis Protecting Solution containing L-selenomethionine, room temperature
Protocol: ^177Lu-A and ^177Lu-B were prepared at a 50 mCi level as described in EXAMPLE 4. Immediately after cooling the reaction mixtures to room temperature, 1 mL of a Radiolysis Protecting solution was added, containing 10 mg/mL gentisic acid; 50 mg/mL ascorbic acid sodium salt; 2 mg/mL HSA; 3.92 mg/mL L-selenomethionine, 0.9% (v:v) benzyl alcohol and 1 mg/mL of Na2EDTA.2H2O in 0.05 M, pH 5.3 citrate buffer. The reaction vials were stored in the autosampler chamber and the stability was analysed by RP-HPLC over time using HPLC Methods 3 [^177Lu-A] or 4 [^177Lu-B].

[5] = format: physicochemical; conditions: 50 mCi/2 mL, Radiolysis Protecting Solution with 0 mg/mL L-cysteine, room temperature
Protocol: ^177Lu-A was prepared at a 50 mCi level as described in EXAMPLE 4. Immediately after cooling the reaction mixture to room temperature, 1 mL of a Radiolysis Protecting Solution was added, that contained 10 mg/mL gentisic acid; 50 mg/mL ascorbic acid sodium salt; 2 mg/mL HSA; 0.9% (v:v) benzyl alcohol and 1 mg/mL of Na2EDTA.2H2O in 0.05 M, pH 3.3 citrate buffer. The reaction vial was stored in an autosampler chamber and the stability was analysed by RP-HPLC over time.

[6] = Stability in Radiolysis Protecting Solution containing methionine (FIG. 4 and similar study); format: physicochemical; conditions: methionine in the radiolysis protecting solution increased to 3 mg/mL
Protocol: Formulations stabilized by such cocktails maintained excellent radiochemical purity (RCP) values (>95% RCP) for as long as 5 days at room temperature. This stabilizing cocktail is added immediately after formation of the radioactive complex, so would be the second vial of a two-vial kit.

^177Lu-A: the ^177Lu complex of DOTA-Gly-ACA-Gln-Trp-Ala-Val-Gly-His-Leu-Met-NH2
RCP for 5 days [1]: > 95%
% RCP 0-d ([2]; 0 d): 100%
% RCP 1-d ([2]; 1 d): 100%
% RCP 2-d ([2]; 2 d): 100%
% RCP 5-d ([2]; 5 d): 100%
% RCP 0-d ([3]; L-cysteine 1.0 mg/mL): 100%
% RCP 1-d ([3]; L-cysteine 1.0 mg/mL): 99.9%
% RCP 2-d ([3]; L-cysteine 1.0 mg/mL): 98.4%
% RCP 3-d ([3]; L-cysteine 1.0 mg/mL): 97.5%
% RCP 5-d ([3]; L-cysteine 1.0 mg/mL): 96.9%
% RCP 0-d ([3]; L-cysteine 1.75 mg/mL): 100%
% RCP 1-d ([3]; L-cysteine 1.75 mg/mL): 99.9%
% RCP 2-d ([3]; L-cysteine 1.75 mg/mL): 98.9%
% RCP 3-d ([3]; L-cysteine 1.75 mg/mL): 95.8%
% RCP 5-d ([3]; L-cysteine 1.75 mg/mL): 93.3%
% RCP 0-d ([4]; 50 mCi level, 0 d): 97.6%
% RCP 1-d ([4]; 1 d): 98.2%
% RCP 2-d ([4]; 2 d): 97.5%
% RCP 3-d ([4]; 3 d): 97.8%
% RCP 5-d ([4]; 5 d): 99.4%
% RCP 0-d (first value of cell) ([5]; 0 d): 100/100%
% RCP 0-d (second value of cell) ([5]; 0 d): 100/100%
% RCP 1-d (first value of cell) ([5]; 1 d): 94.9%
% RCP 1-d (second value of cell) ([5]; 1 d): 99.2%
% RCP 2-d (first value of cell) ([5]; 2 d): 93.6%
% RCP 2-d (second value of cell) ([5]; 2 d): 97.3%
% RCP 3-d (second value of cell) ([5]; 3 d): ND/95.1%
% RCP 5-d (first value of cell) ([5]; 5 d): 90.4%
% RCP 5-d (second value of cell) ([5]; 5 d): 92.9%
RCP (effective radiostabilization) [6]: > 95%
